Assay: soluble on expression in E. coli; label from the status in PepcDB or PDB records

Sequence	soluble on expression in E. coli
MGSDKIHHHHHHVLIKSIKLTNILSFGEAAETIELRPLNVVIGPNGSGKSNLIAAIELFRALPKDAPAFFRREGGIHDWLWKGGEIPPVATIESVFDEKGPLSGLRYALRFTVVGQHFEIIEERIEEEAAEGAQTPPPYHFKDGRGALRALLANEGEIKAWSFVIPSEIDPTQSILAQRKDPHQYPELTSLGAVLPTMRCYREWTMGPQSPPRQDQKTDLRNDYLDPYGAGNLALVLQRLGNKPALKKRFLEALRLLYEGIDDYGVTIEGGTSQIFFHEGGRFTIPASRLSDGTLRYLCLLAILLDPAPPPLLCIEEPELGLHPDILPTLADLLKEASERTQVIVTTHSDGLVDAMTDRPEAVLIAEKNENGTTLTRLDGETLKPWLAKYRLGELWTRGGIGGTRW	not soluble
MGSDKIHHHHHHVNYPKVYTSEQACPINLVGETGQAVQISIHAPSQYICANCERILPDWKRQSFLRVVIVLQQSRYQLVKKTTEVESEKERLREKFMRFGCDLAFNLRDRGYLTDLIDPRTGYPLLSHPGAIPHDDTAVVKALLNYPVIKNQCRVLVHPEWGAAVYPSILISEAPPILIEWVTKGIAAMHGWKEISH	not soluble
MGSDKIHHHHHHVPNEKLSNRDRLLAVRDIFEQYSDEEQTLTLEELSTELSKRGLIEKLSRKSLKEDIAALAKSGFDIHAEETKNGLAIPYHLVSRPFEYHHLRLLVDAIASAKFISESETEVLVRNIHTLTSKRLAKTLTPVIHTVKKPKGVIPFSIDTIQKAIIEQDIISFQYQGKFNERTRKFELRRDGDYYLVTPAHLIVDNGNYYLIGRDERVEEIRTYRVDRIVNCSVFEPAQTPVEVEATYLSSMFNMYGGEQEQLTLKFHESVMPTVVDRFGTDIRCRRLEGDWFEVKVGALFSQGFMMWLIQFAEQAEILEPALCREAFKNKVLELAKVYQAGVPVSPQMNESV	not soluble
MGSDKIHHHHHHVPNFLPINTILVPQGAEYKAVCRGLNGVTGSIPTVVAIPVGMKPLLKYLHQGQFLAPKSRVLIMGICGSLSDRYRVGDIVLYQDCIYQGKLLECDRTFTAQLHSSLSEKVSLVKSLTSDRMIWSAAEKLHLGETLAADVVDMEGFTALEFFNVGGVAVTMLRVVSDDCQHDIPDLTSAINSDGSLNPFSLAMAMLRQPLAATRLIRGSLTALKVLEQVTNMLFSGNRPE	not soluble
MGSDKIHHHHHHVRFCCHHDWLYGVLHLPQQPVTRGVLIVVGGPQYRVGSHRQFVLLARYLAERGIAVMRFDFRGMGDSDGEIRTFEHVGEDLRSAADFFFSECPFLEDIVIWGLCDAASAALFHAHQDSRVSGLVLLNPWVRTEQGIAKAYLKHYYLERLFDPEFWKKLLGGKFNPLASIRSLYEFGRNSLRGGKSPAVSEKSAGSACDLTVPLPERMLDGLKRFQGKILIITSGNDLTAREFLDLVDSSADWQATLRTKQTELCHMESANHTFSTREWRDQVTELTANRVLSW	not soluble
MGSDKIHHHHHHVRVLAIRHVEIEDLGMMEDIFREKNWSFDYLDTPKGEKLERPLEEYSLVVLLGGYMGAYEEEKYPFLKYEFQLIEEILKKEIPFLGICLGSQMLAKVLGASVYRGKNGEEIGWYFVEKVSDNKFFREFPDRLRVFQWHGDTFDLPRRATRVFTSEKYENQGFVYGKAVGLQFHIEVGARTMKRWIEAYKDELEKKKIDPRLLLETAEREEKVLKGLLRSLLERMVES	soluble
MGSDKIHHHHHHVRVPLLDRDHPRYGNDRFWPGMRAELAKLWRERGHAPILNPPRPRARTHKIQESRSMHLEVLRVPPTTADPEMADRPPLVFVHGAFAGAWCWRETFMPWFAARGWDTHALSLRGHGASDGAERLDSTRLADYADDLRRVIDELDRPPVLIGHSMGGMVVQKVLEDTQAAAAVLLASVPPTGLFSGSVLMALRHPLLCMALWRIQTFGPEEASLRMVEAGLFSTPLDAREAERYTALLQNESSRVVLDMTWFDVPRRRCPQELPLLVLGAEDDAFVPPIEVLATAAFHGTTAQLLPDIGHAMMLDRGWEKTASVMEEWLRCSAF	not soluble
MGSDKIHHHHHHVSKPLTGIHILVTRPSHQAGGLAGKIRAAGGEPCLFPVLEIQDISDPRPLLELIERLDEFYLAIFVSPNAVNKAMSVICAKRALPSDLKIATVGQGTARTLRRFGVSGVIVPAVRFDSEALLDMAELDRINVAGKRIIIFRGDNGRELLGETLRKRGASVEYAECYRRIRPEAEIGPLLAAWTRGEMNGVTVTSSEGLRNLWEMVGDSGRTWLENTPLFVSHERIAGVARKLGFNRVIVTAAGDDGLVAGLQDYFSGHMG	not soluble
MGSDKIHHHHHHWFMPFDNWLYQLQNADPVEISSSGFEIAVIDYSKDGSESGEYSPEEIKIMVDAGVVPVAYVNIGQAEDYRFYWKESWYTNTPEWLGEEDPAWPGNYFVKYWYNEWKEIVFSYLDRVIDQGFKGIYLDRIDSFEYWAQEGVISRRSAARKMINFVLEIAEYVRERKPDMLIIPQNGENILDFDDGQLASTVSGWAVENLFYLKTIPLEENETKSRLEYLIRLNRKGKFILSVDYVDDGSDSFENISRILDYYEKAKRNGCIPYAARSDLELDEMNVIEGIQPPEALKDYESRTYR	not soluble
MGSEFSIDQKRYLEGFATGVTAARAARGSLPAGSAASPSGPDAIHHQAQDRVTASGKKLNDQEKWKREQHPFDAYARLKQQAKDNAAPKPADNFRWRYYGLFYVAPAQTSYMCRLRIPNGILTSWQMAGLAYLADTLADGYAHVTTRANLQMREIAPKDAVQLLQGIESLGLWARGSGADNIRNVTGSATAGIDPQELIDTRAYARDWHFYILNERALFGLPRKFNVAFDGGGLIPTLEDTNDIAFQAVTIGDGHGVAPGVYFRLALGGITGHKDFARDTGVIVAPDEATEVADAIVRVFIEHGDRTDRNKARLKYVLDAFGFDKYLELVEDKLGRKLIRVPAEAAAPRPAQDRAAHLGVHPQQQAGMNWIGVRLATGHLTSVQMRGLAEIARSFGDGDLRLTVWQNLLISGVPDARVTDATAAIEALGLAITASPLRAGLIACTGASGCRFAAAHTKETAEAIAQYCEPRVPLDTPINIHLTGCHNSCAQHFISDIGLIGAKVAVSDEDSVEGFHIHVGGGFGVDAAIGTEVLRDVKQDDAPRVIERMLQTYLARRASPAETFLAFVRRQDAAALQQLFAYEQSPETVA	not soluble
MGSEQNDSTSFTQSQASEPKLCVKGCGFFGSPSNMDLCSKCYRGICAEEAQTAVAKAAVEKSFKPSPPRSLFIAEPPAVVVEPKPEKAAVVVVSAEPSSSAVPEANEPSRPARTNRCLCCNKKVGIMGFKCKCGSTFCGEHRYPETHDCSFDFKEVGRGEIAKANPVVKADKIQRF	soluble
MGSGRTWRELKEVFPKLARAKYYTRARYGYCRGYEAVDFVESVRWYYYVLSGLVVLDRPEAKHLEHHHHHH	not soluble
MGSPLPFRLTCVWAGEPSMKKAIIFDCEFLCLEGSQRRFWCAAHDPDPVIAQIGAVKLGLEGGFPLLETYKVLISPVDRHGRRYAIDPFFTRLTGITEENIEAEGVPLQDALSSFDSFSEGAQCWSWGKDELNMMAISTYVAGIQPPMPACRFDNAVRLLLAAGMPVEDLAKTPSNSLADYYGVAHPPLQGHDALGDALSVSYALQHLLRSGKLKPEEFTLAA	soluble
MGSSHHHHHHSSENLYFQGHMSSRAETPRVPFLDLKAAYEELRAETDAAIARVLDSGRYLLGPELEGFEAEFAAYCETDHAVGVNSGMDALQLALRGLGIGPGDEVIVPSHTYIASWLAVSATGATPVPVEPHEDHPTLDPLLVEKAITPRTRALLPVHLYGHPADMDALRELADRHGLHIVEDAAQAHGARYRGRRIGAGSSVAAFSFYPGKNLGCFGDGGAVVTGDPELAERLRMLRNYGSRQKYSHETKGTNSRLDEMQAAVLRIRLAHLDSWNGRRSALAAEYLSGLAGLPGIGLPVTAPDTDPVWHLFTVRTERRDELRSHLDARGIDTLTHYPVPVHLSPAYAGEAPPEGSLPRAESFARQVLSLPIGPHLERPQALRVIDAVREWAERVDQA	soluble
MGSSHHHHHHSSGLVPRGSHMASAASYPPIKNTKVGLALSSHPLASEIGQKVLEEGGNAIDAAVAIGFALAVVHPAAGNIGGGGFAVIHLANGENVALDFREKAPLKATKNMFLDKQGNVVPKLSEDGYLAAGVPGTVAGMEAMLKKYGTKKLSQLIDPAIKLAENGYAISQRQAETLKEARERFLKYSSSKKYFFKKGHLDYQEGDLFVQKDLAKTLNQIKTLGAKGFYQGQVAELIEKDMKKNGGIITKEDLASYNVKWRKPVVGSYRGYKIISMSPPSSGGTHLIQILNVMENADLSALGYGASKNIHIAAEAMRQAYADRSVYMGDADFVSVPVDKLINKAYAKKIFDTIQPDTVTPSSQIKPGMGQLHEGSN	soluble
MGSSHHHHHHSSGLVPRGSHMASGMAPGGYVAPKAVWLPAVKAKGLEISGTFTHRQGHIYMEMNFTNKALQHMTDFAIQFNKNSFGVIPSTPLAIHTPLMPNQSIDVSLPLNTLGPVMKMEPLNNLQVAVKNNIDVFYFSCLIPLNVLFVEDGKMERQVFLATWKDIPNENELQFQIKECHLNADTVSSKLQNNNVYTIAKRNVEGQDMLYQSLKLTNGIWILAELRIQPGNPNYTLSLKCRAPEVSQYIYQVYDSILKN	soluble
MGSSHHHHHHSSGLVPRGSHMFADVETTCCARRTLTTIDEVPGMADETALLDWLGTMREKQPVWQDRYGVWHVFRHADVQTVLRDTATFSSDPTRVIEGASPTPGMIHEIDPPEHRALRKVVSSAFTPRTISDLEPRIRDVTRSLLADAGESFDLVDVLAFPLPVTIVAELLGLPPMDHEQFGDWSGALVDIQMDDPTDPALAERIADVLNPLTAYLKARCAERRADPGDDLISRLVLAEVDGRALDDEEAANFSTALLLAGHITTTVLLGNIVRTLDEHPAHWDAAAEDPGRIPAIVEEVLRYRPPFPQMQRTTTKATEVAGVPIPADVMVNTWVLSANRDSDAHDDPDRFDPSRKSGGAAQLSFGHGVHFCLGAPLARLENRVALEEIIARFGRLTVDRDDERLRHFEQIVLGTRHLPVLAGSSPRQSA	soluble
MGSSHHHHHHSSGLVPRGSHMHVQAKFSNNLNIFEYSIVIRKIFYLGPPGSFSQEAAEIFGSDLVPVRSISEIFHKISVTGDYGIVPIENSIEGPVNETLDGLFRHEDIYIVDHVEIPIEIFLASNCDTENIRRIYSHPHAIAEAGDYLERTENIEVIRTSSTSEAAKLASMDEAGAALCSMKAAQHYGLANTVKIESKSRNITRFILIGRERNVEGSRHIILCVIPDRPGSLHSLIGVLASRGINMNMIYSRPLRDTIWKYYFYIEFSGKLDEDLLLTMGKQSLRILYKGSFKCCR	soluble
MGSSHHHHHHSSGLVPRGSHMKDTEDAFGHALMDYADGKCSYEMVETRNGKIDVTSISYYFRDHDQWPSMEREAIRYAKGRVVDVGAGAGRHSLYLQDQGFDVTALDISPLAVEVMKHRGVKNAKIASIDEVEPGWDTMILLGNNFGLMRTIDEAMAFLRRFYSESSDDARIIAETTDPLSAGFQSDKGYPGELEIRVIYREYRSEWFRYLLADRQKLREIIKDTGWKIDHFYDIADVDVYCFVLSK	soluble
MGSSHHHHHHSSGLVPRGSHMKLQFNLKAYFKTSADPTPAKDAIAALFEEANSTLLTRGAPEGQGAKVTEWKLGEDRIELTLQSGRYVRVHDAIFRLRKQLAEALGKKYKIGIRGIEVESFIIKVPADHELRMLKVPYIKSMENIEGGIQLELEVGEAEMKNRVPDRILTLLEEKIEAAQYGAKAEHWNLLWQREPMEHPFKEDPTQAMMKEGWLKRGSSRGQWIHGPQSARIFRTFEKIVLEELLEPLGYREMIFPKLVTWEVWMKSGHAKGVYPEIYYVCPPQTRDPDYWEEVADYYKVTHEVPTKLIKEKIAEPIGGMCYAQCPPFWMYVAGETLPNEEIPVKVFDRSGTSHRYESGGIHGIERVDEFHRIEIVWIGTKEEVLKCAEELHDRYMHIFNDILDIEWRKARVTPWFMAQEGLLGLAEENTVGTTDYEACLPYRGPDGEWLEFQNVSINGDKYPKGFNVKLQSGDELWSGCSGVGLERWAAVFLAQKGLDPANWPEEFRNRVGEMPKGIRFL	soluble
